Data as given in patent publication US20240252641A1 (TCR2 THERAPEUTICS, published 2024).

Columns and labels:
[1] = molecular target: T1, human CD70, recombinant, N-terminally biotinylated (residues 39-193) (human, UniProt P32970 39-193, N-terminal biotin); assay: SPR
T1 construct: range 39-193; the same entry is used there; also called biotinylated human CD70; CD70 biotin
T1 sequence (looked up): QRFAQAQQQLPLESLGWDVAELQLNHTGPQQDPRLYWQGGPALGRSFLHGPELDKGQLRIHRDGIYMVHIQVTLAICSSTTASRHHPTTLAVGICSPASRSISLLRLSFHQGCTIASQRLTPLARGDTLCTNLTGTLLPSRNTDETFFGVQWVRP
Procedure, shortened: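 Surface plasmon resonance (SPR) was used to determine the affinity (Kd) of human scFv antibodies for recombinant, N-terminally biotinylated human antigen. These antibodies were selected from a naïve human library panned against the CD70 extracellular domain, spanning aa39-193.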

[2] = molecular target: T2, CD70 on cells (CHO-CD70, JVM-3, U266, Raji, THP-1, T cells) (human, UniProt P32970 1-193); assay: 1.25 µg/mL scFv on U266 cells
T2 construct: whole, on cells; also called cell-surface CD70
T2 sequence (looked up): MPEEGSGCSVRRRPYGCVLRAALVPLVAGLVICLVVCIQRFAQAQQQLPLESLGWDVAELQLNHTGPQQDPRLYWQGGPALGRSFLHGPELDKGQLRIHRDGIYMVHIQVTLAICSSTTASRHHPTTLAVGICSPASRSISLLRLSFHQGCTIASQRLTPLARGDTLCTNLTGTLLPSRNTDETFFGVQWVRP
Procedure, shortened: (§1)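 Human scFv antibodies were raised by panning a naïve human library against the CD70 extracellular domain (aa39-193). They were tested for binding to tumour cell lines with high CD70 expression (CHO-CD70, JVM3, U266) and low CD70 expression (CHO WT, K562). Cell binding was recorded per cell line, and the detection method is not stated.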

[3] = molecular target: T2, CD70 on cells (CHO-CD70, JVM-3, U266, …); assay: 1.25 µg/mL scFv on JVM-3 cells
Procedure, shortened: as §1

[4] = molecular target: T2, CD70 on cells (CHO-CD70, JVM-3, U266, …); assay: 1.25 µg/mL scFv on CHO-CD70 cells
Procedure, shortened: as §1

[5] = molecular target: T1, human CD70, recombinant, N-terminally …; assay: CD27 blocking ELISA, 3 µM scFv, strep/HRP
[6] = molecular target: T1, human CD70, recombinant, N-terminally …; assay: CD27 blocking ELISA, 3 µM scFv, anti-His/HRP; also: unit not given here
Protocol: Human scFv antibodies binding CD70 were generated by panning a naïve human library with the extracellular domain (aa39-193) of CD70. 53 antibodies were identified. The ability of CD27 to block CD70 binding of the identified antibodies was measured by ELISA using two different assays. In the first assay, CD27 and his-tagged scFv anti-CD70 binders were simultaneously added to surface bound CD70, and the ability of the scFv binders to bind CD70 was detected with anti-His HRP. In the second assay, plate-bound CD70 was pre-incubated with CD27 for 30 minutes, and then additional CD27 and the his-tagged scFv anti-CD70 binder was added. The ability of the scFv binders to bind CD70 was detected with anti-His HRP. FIG. 34 is a schematic of the two different CD27 blocking assays. CD70 affinity was also measured by SPR analysis. scFv antibodies were also tested for their ability to bind tumor cell lines with high (CHO-CD70, JVM3, and U266) and low levels (CHO WT and K562 of CD70 expression. Results for 39 antibodies are shown in Table 1 below.

B1: 62-TC7-V-D08 (scFv)
scFv: QVQLQQWGAGLLKPSETLSLTCAVYGGSFSGYYWSWIRQPPGKGLEWIGEINHSGSTNYNPSLKSRVTISVDTSKNQFSLKLSSVTAADTAVYYCARVARGKGAFDIWGQGTMVTVSSGGSGGSGGSGGSQSALTQPASVSGSPGQSITISCTGTSSDVGGYNYVSWYQQHPGKAPKLLIYEVSSRPSGVSNRFSGSKSGNTASLTISGLQAEDEADYYCNSYTNSGSWVFGGGTKVTVL
notes: His-tagged
**Q.** B1 was tested. Which Kd [1] did it give?
**A.** 194 nM

**Q.** What about the cell binding [2] of the same binder?
**A.** 35300

**Q.** What about the cell binding [3] of the same binder?
**A.** 45200

**Q.** What about the cell binding [4] of the same binder?
**A.** 286000

**Q.** And the strep/HRP [5]?
**A.** 1.54

**Q.** What about the “anti His/HRP” value [6] of the same binder?
**A.** 2

B2: 57-TC7-VII-A03 (scFv)
scFv: QVQLQQSGPGLVKASETLSLTCAVSGHSISSSNYWGWIRQPPGKGLEWIGSIYHSGTTYYNPSLKSRVTMSVDTSKNQFSLKLSSVTAADTAVYYCARHGSGDLGYLEYWGQGTLVTVSSGGSGGSGGSGGSSYELTQSPSVSVAPGKTARITCGGNNIGSKSVHWYQQKPGQAPVLVIYYDSDRPSGIPERFSGSNSGNTATLTISRVEAGDEADYYCQVWDSSSDHPVFGGGTKVTVL
notes: His-tagged
**Q.** Which results are given for B2?
**A.** Kd [1]: 853 nM; cell binding [2]: 3150; cell binding [3]: 1640; cell binding [4]: 163000; strep/HRP [5]: 1.49; anti His/HRP [6]: 1.89

B3: 61-TC7-IV-H08 (scFv)
scFv: QMQLVQSGGGLVQPGRSLRLSCAASGFTFDDYAMHWVRQAPGKGLEWVAVISYDGSNKYYADSVKGRFTISRDNSKNTLYLQMNSLRAEDTAVYYCARSSYDFWSGYPKDMDVWGKGTTVTVSSGGSGGSGGSGGSSSELTQDPAVSVALGQTVRITCQGDSLRSYYASWYQQKPGQAPVLVIYGKNNRPSGIPDRFSGSSSGNTASLTITGAQAEDEADYYCNSRDSSGNHLVVFGGGTKLTVL
notes: His-tagged
**Q.** B3 was tested. Which Kd [1] did it give?
**A.** 332 nM

**Q.** And the cell binding [2]?
**A.** 947

**Q.** And the cell binding [3]?
**A.** 1070

**Q.** And the cell binding [4]?
**A.** 64900

**Q.** What about the strep/HRP [5] of the same binder?
**A.** 1.52

**Q.** What about the “anti His/HRP” value [6] of the same binder?
**A.** 0.711

B4: 54-TC7-V-D10 (scFv)
scFv: QVQLQQWGAGLLKPSETLSLTCAVYGGSFSGYYWSWIRQPPGKGLEWIGEINHSGSTNYNPSLKSRVTISVDTSKNQFSLKLSSVTAADTAVYYCARGGYRSYWYFDLWGRGTLVTVSSGGSGGSGGSGGSQSALTQPASVSGSPGQSITISCTGTSSDVGGYNSVSWYQHHPGKAPKLMIYDVSDRPSGVSDRFSGSKSGNTASLTISGLQAEDEADYYCSSYAGSNNVVFGGGTKVTVL
notes: His-tagged
**Q.** Which results are given for B4?
**A.** Kd [1]: 209 nM; cell binding [2]: 1140; cell binding [3]: 2130; cell binding [4]: 240000; strep/HRP [5]: 1.17; anti His/HRP [6]: 1.46

B5: 38-TC7-V-G06 (scFv)
scFv: QMQLVQSGAEVKKPGSSVKVSCKASGGTFSSYAISWVRQAPGQGLEWMGWISAYNGNTNYAQKLQGRVTMTTDTSTSTAYMELRSLRSDDTAVYYCARDDYWGQGTLVTVSSGGSGGSGGSGGSSYELTQPPSVSVAPGKTARITCSGDVLGENYADWYQQKPGQAPELVIYEDSERYPGIPERFSGSTSGNTTTLTISRVLTEDEADYYCLSGDEDNRVFGGGTKLTVL
notes: His-tagged
**Q.** How did the Kd [1] turn out when B5 was run?
**A.** 182 nM

**Q.** And the cell binding [2]?
**A.** 16900

**Q.** And the cell binding [3]?
**A.** 27400

**Q.** And the cell binding [4]?
**A.** 1.34e+06

**Q.** What about the strep/HRP [5] of the same binder?
**A.** 1.53

**Q.** And the “anti His/HRP” value [6]?
**A.** 1.02

B6: 56-TC7-VI-H08 (scFv)
scFv: QMQLVQSGAEVKKPGASVKVSCKASGYTFTSYYMHWVRQAPGQGLEWMGIINPSGGSTSYAQKFQGRVTMTRDTSTSTAYMELRSLRSDDTAVYYCARGWETNDAFDIWGQGTMVTVSSGGSGGSGGSGGSQSVLTQPPSVSGAPGQKVTISCSGSNSNVGNHYLSWYQHLPGTAPRLLIFDNNKRPSGIPDRFSGSKSGASATLDITGLQTGDEADYFCGTWDSRLNVWVFGGGTKLTVL
notes: His-tagged
**Q.** What does the source list for B6?
**A.** Kd [1]: 535 nM; cell binding [2]: 6310; cell binding [3]: 2360; cell binding [4]: 296000; strep/HRP [5]: 1.44; anti His/HRP [6]: 1.5

B7: 40-TC7-VI-F11 (scFv)
scFv: EVQLVESGGGVVQPGRSLRLSCAASGFTFSSYAMHWVRQAPGKGLEWVAVISYDGSNKYYADSVKGRFTISRDNSKNTLYLQMNSLRAEDTAVYYCARDGYGFDYWGQGTLVTVSSGGSGGSGGSGGSSYELTQSPSVSVAPGQTARITCGGNNIGSKSVHWYQQKPGQAPVLVVYDDSDRPSGIPERFSGSNSGNTATLTISRVEAGDEADYYCQVWDSSTPYVFGTGTKLTVL
notes: His-tagged
**Q.** With B7 as the binder, how does the Kd [1] read?
**A.** 279 nM

**Q.** What about the cell binding [2] of the same binder?
**A.** 11800

**Q.** And the cell binding [3]?
**A.** 4870

**Q.** And the cell binding [4]?
**A.** 235000

**Q.** And the strep/HRP [5]?
**A.** 1.37

**Q.** And the “anti His/HRP” value [6]?
**A.** 1.84

B8: 46-TC7-VII-E11 (scFv)
scFv: QVQLVQSGGGVVQPGRSLRLSCAASGFTFSSYAMHWVRQAPGKGLEWVAVISYDGSNKYYADSVKGRFTISRDNSKNTLYLQMNSLRAEDTAVYYCARDSSGYYYGSDAFDIWGQGTMVTVSSGGSGGSGGSGGSSYELTQPPSVSVALGQTVRITCQGDSLRSYYASWYQQKPGQAPVLVIYGKNNRPSGIPDRFSGSSSGNTASLTITGAQAEDEADYYCNSRDSSGNPWVFGGGTKVTVL
notes: His-tagged
**Q.** What does the source list for B8?
**A.** Kd [1]: 180 nM; cell binding [2]: 2290; cell binding [3]: 1790; cell binding [4]: 76200; strep/HRP [5]: 1.26; anti His/HRP [6]: 2.28

B9: 51-TC7-VIII-G06 (scFv)
scFv: QVQLLESGGGLVQPGRSLRLSCAASGFTFDDYAMHWVRQAPGKGLEWVSGITWNSGSIGYADSVKGRFTISRDNAKNSLYLQMNSLRAEDTAVYYCAREVAARPFYYYGMDVWGQGTTVTVSSGGSGGSGGSGGSQSVLTQPPSVSVAPGKTARITCGGNNIGSKSVHWYQQKPGQAPVLVVYDDSDRPSGIPERFSGSNSGNTATLTISGTQAMDEADYYCQAWDSSTVFGGGTKLTVL
notes: His-tagged
**Q.** With B9 as the binder, how does the Kd [1] read?
**A.** 532 nM

**Q.** What about the cell binding [2] of the same binder?
**A.** 2140

**Q.** What about the cell binding [3] of the same binder?
**A.** 4260

**Q.** What about the cell binding [4] of the same binder?
**A.** 170000

**Q.** And the strep/HRP [5]?
**A.** 1.46

**Q.** What about the “anti His/HRP” value [6] of the same binder?
**A.** 0.676

B10: 52-TC7-VIII-C02 (scFv)
scFv: QVQLLESGGGVVQPGRSLRLSCAASGFTFSSYGMHWVRQAPGKGLEWVAVISYDGSNKYYADSVKGRFTISRDNSKNTLYLQMNSLRAEDTAVYYCAKGAYYYGSVSGMDVWGQGTTVTVSSGGSGGSGGSGGSSYELTQPVSVSVALGQTARLTCAGNNIGSKNVHWYQQKPSQAPVLVIYNDNIRPNFGIPERFSGSNSGNTATLTISSAQAGDEADYYCQVWDSSTAEVFGGGTKLTVL
notes: His-tagged
**Q.** Which results are given for B10?
**A.** Kd [1]: 64.6 nM; cell binding [2]: 2980; cell binding [3]: 8050; cell binding [4]: 430000; strep/HRP [5]: 0.533; anti His/HRP [6]: 1.56

B11: 55-TC4-IX-G04 (scFv)
scFv: QVQLLESGGGVVQPGRSLRLSCAASGFTFSSYAMHWVRQAPGKGLEWVAVISYDGSNKYYADSVKGRFTISRDNSKNTLYLQMNSLRAEDTAVYYCARGLGFGSGWYEYVDAFDIWGQGTMVTVSSGGSGGSGGSGGSQSVLTQPASVSGSPGQSITISCTGTSSDVGSYNLVSWYQQHPGKAPKLMIYEVSKRPSGVSNRFSGSKSGNTASLTISGLQAEDEADYYCSSYRSNNTPWVFGGGTKLTVL
notes: His-tagged
**Q.** How did the Kd [1] turn out when B11 was run?
**A.** 984 nM

**Q.** And the cell binding [2]?
**A.** 2700

**Q.** And the cell binding [3]?
**A.** 3570

**Q.** And the cell binding [4]?
**A.** 87200

**Q.** And the strep/HRP [5]?
**A.** 1.28

**Q.** What about the “anti His/HRP” value [6] of the same binder?
**A.** 1.24

B12: 35-TC6-VII-A09 (scFv)
scFv: EVQLVQSGGGVVQPGRSLRLSCAASGFTFSSYGMHWVRQAPGKGLEWVAVISYDGSNKYYADSVKGRFTISRDNSKNTLYLQMNSLRAEDTAVYYCAKAGAPPHYYYGMDVWGQGTTVTVSSGGSGGSGGSGGSQSALTQPASVSGSPGQSITISCTGTSSDVGGYDYVSWYQQHPGKAPKLMIYEVTDRPSGIPNRFSGSKSGNTASLTISGLQAEDEADYYCSSYTYTSTLEVFGGGTKVTVL
notes: His-tagged
**Q.** Which results are given for B12?
**A.** Kd [1]: 367 nM; cell binding [2]: 16500; cell binding [3]: 18800; cell binding [4]: 1.15e+06; strep/HRP [5]: 1.49; anti His/HRP [6]: 0.639
